In patent publication US20180066068A9, “ANTI-PSYK ANTIBODY MOLECULES AND USE OF SAME FOR SYK-TARGETED THERAPY” (Millennium Pharmaceuticals, Inc., priority 2014, published 2018):

B1: MIL81-1-8 3H3/3L2: recombinant molecular clone of MIL81-1-8; heavy chain SEQ ID NO:4, light chain SEQ ID NO:6, from transfected HEK293 cells (antibody)
heavy: METGLRWLLLVAVLKGVQCQSVEESGGRLVTPGTPLTLTCTVSGIDLNSYIMSWVRQAPGKGLEWIGIISRRGNTYYASWPKGRFTISKTSTTVDLKITSPTTEDTATYFCARAYLYTSGTMSVWGPGTLVTVSSGQPKAPSVFPLAPCCGDTPSSTVTLGCLVKGYLPEPVTVTWNSGTLTNGVRTFPSVRQSSGLYSLSSVVSVTSSSQPVTCNVAHPATNTKVDKTVAPSTCSKPTCPPPELLGGPSVFIFPPKPKDTLMISRTPEVTCVVVDVSQDDPEVQFTWYINNEQVRTARPPLREQQFNSTIRVVSTLPIAHQDWLRGKEFKCKVHNKALPAPIEKTISKARGQPLEPKVYTMGPPREELSSRSVSLTCMINGFYPSDISVEWEKNGKAEDNYKTTPAVLDSDGSYFLYSKLSVPTSEWQRGDVFTCSVMHEALHNHYTQKSISRSPGK
light: MDTRAPTQLLGLLLLWLPGARCADIVMTQTPSPVEAAVGGTVTIKCQASESISSYLSWYQQKPGQPPKLLIYRASTLVSGVPSRFKGSGSGTDFTLTISDLECADAATYYCQHTYFGSDYVGGFGGGTEVVVKGDPVAPTVLIFPPAADQVATGTVTIVCVANKYFPDVTVTWEVDGTTQTTGIENSKTPQNSADCTYNLSSTLTLTSTQYNSHKEYTCKVTQGTTSVVQSFNRGDC

How the values were obtained:
DLBCL cell lines = experiment: Inhibition of cellular proliferation; format: cell-based; conditions: expanded set of relevant models; 72 hours of treatment, DLBCL cell lines (FIG. 21)
[1] = system: pSYK, pBLNK, cleaved caspase 3 in PHTX-95L primary DLBCL xenografts; experiment: Pharmacodynamics by IHC in PHTX-95L xenografts; format: in vivo, NOD SCID mice
[2] = system: pSYK in TMD8 lymphoma cell line xenograft; experiment: Pharmacodynamics by IHC in TMD8 xenografts; format: in vivo, mice; conditions: single oral dose 120 mg/kg, two hours after dosing; MIL81-1-8 hybridoma and molecular clone antibodies
[3] = target: T1, pSYK in human DLBCL biopsies (Homo sapiens, UniProt P43405); experiment: IHC of human DLBCL biopsies, AMP HQ versus Leica IHC; format: binding
T1 construct: from tissue; host or cells: FFPE human DLBCL biopsies; one normal lymph node
Method: Antibodies were incubated with OmniMap goat anti-rabbit HRP secondary antibody (Ventana Medical Systems) for 16 minutes. A Discovery AMP TSA HQ kit (Ventana Medical Systems) was applied for 16 minutes followed by 16 minute incubation with the Discovery anti-HQ HRP (Ventana Medical Systems) antibody. The staining was then developed with the 3,3′-diaminobexidine (DAB) substrate map system. Slides were counterstained with hematoxylin and imaged using the Aperio whole slide scanning system (XT). A comparative staining was obtained with the MIL81-1-8 3H3/3L2 antibody using an automated protocol on a Leica automated stainer. pSYK protein levels in Formalin-Fixed, Paraffin-Embedded tissues were incubated with MIL81-1-8 3H3/3L2 antibody ([…]) for 30 minutes on the Leica Microsystems (Wetzlar, Germany) BOND RX automated stainer. Antibodies were incubated with a rabbit anti-goat HRP secondary antibody (Leica Laboratories) and developed with the 3,3′-diaminobexidine (DAB) substrate map system. Slides were counterstained with hematoxylin and imaged using the Aperio whole slide scanning system (XT). The staining of the AMP HQ and the Leica IHC were compared to determine staining specificity. […] Each was scored either positive (membrane stain was found) or negative (no membrane staining was found). […]

GST-pSYK (IVK) = target: T2, GST-pSYK (IVK) (Homo sapiens, UniProt P43405); experiment: Western blot on autophosphorylated GST-pSYK (IVK); format: binding; conditions: GST-tagged recombinant SYK, compared with untreated
T2 construct: made in house; host or cells: baculovirus-infected Sf9 cells
Method: GST-hSYK was expressed in baculovirus-infected Sf9 cells and affinity-purified by glutathione Sepharose affinity resin. For in vitro kinase (IVK) pSYK, isolated GST-SYK was incubated in 1 mM ATP, 1 mM MgCl2 for 1 hr at room temperature to allow autophosphorylation to occur. The reaction was stopped by the addition of 5 mM EDTA and a small aliquot removed for treatment with 0.1% SDS, stored […] and used for AlphaScreen analysis or stored at −80° without further purification. This sample was later used at Epitomics for screening assays of hybridoma. An aliquot of the sample was analyzed by SDS-PAGE for Western blotting using anti-SYK (Cell Signaling Technologies #2712) and Epitomics 2175-1. The majority of the recombinant material was confirmed to be phosphorylated at Y525/526.
(§1) Western blots were prepared from SDS-PAGE gels of GST-pSYK (IVK), and phosphatase-treated GST-pSYK. Each hybridoma multiclone supernatant was tested for binding to the blots. […] By this method, multiclone hybridoma supernatants with good binding of phosphorylated relative to dephosphorylated pSYK were 1, 2, 19, 24, 39, 49, 52, 53, 55, 59, 63, 70, 81, 84, 85, 87, 98 and 99.

[4] = target: T3, SYK in lysates of WSU-DLCL2 cells (Homo sapiens, UniProt P43405); experiment: Western blot of cell lysates, WSU-DLCL2; format: binding; conditions: lysate of stimulated cells
T3 construct: endogenous in cells; host or cells: WSU-DLCL2 cells, unstimulated or stimulated (BCR crosslinking or pervanadate)
Method: Additional cell culture material was used to screen antibodies by utilizing WSU-DLCL2 (human diffuse large B-cell lymphoma) cells that were stimulated through crosslinking the B-cell receptor (AffiniPure F(ab′)^2 fragment of goat anti-human Ig, cat #109-006-127, JacksonImmuno Research Laboratories, Inc., West Grove, Pa.) or with pervanadate treatment (25 μL into 1 mL of cells of the following; 50 μL Na3VO4, 5.5 μL 9.1M H2O2(31%), 944.5 μl H2O) over a 60 min time course. At each time point cells were collected and lysed in MPER (Thermo: 7850) containing both a protease inhibitor cocktail I (Calbiochem:539131-10VL) and 1× HALT a generic protein phosphatase inhibitor cocktail (Thermo: 78428). Also LY10 (OCI-LY10) cells were used as lysates without or with stimulation with cross-linking or pervanadate as described above. Ly10 cells have weak SYK expression compared to WSUDLCL2 cells (FIG. 1). […] (BLNK was detected in every sample by CST 3575 and SC15345 antibodies, with the pBLNK detection paralleling the pSYK detection in the crosslinked and pervanadate-treated cells.) One conclusion of this study extended the nucleic acid results, and found weak pSYK signal in the Ly10 crosslinked sample. […]

[5] = target: T4, phosphatase-treated GST-pSYK (de-pSYK) (Homo sapiens, UniProt P43405); experiment: Western blot on phosphatase-treated GST-pSYK; format: binding; conditions: GST-tagged recombinant SYK
T4 construct: made in house; host or cells: baculovirus-infected Sf9 cells
Method: Some of the autophosphorylated GST-pSYK was treated with T-cell protein phosphatase (TC-PTP, New England Biolabs), a tyrosine-specific phosphatase, for confirming specificity of antibodies to pSYK.
as §1

[6] = target: T5, pSYK in DLBCL patient samples and normal lymph node (Homo sapiens, UniProt P43405); experiment: IHC of molecular clone versus hybridoma antibody on human biopsies; format: binding
T5 construct: from tissue; host or cells: FFPE human DLBCL biopsies; one normal lymph node
Method: The molecular clone antibody also was assessed by IHC. The immunohistochemical staining of antibody purified from MIL81-1-8 hybridoma supernatant as described above was compared to staining by MIL81-1-8 3H3/3L2 clone antibody purified from culture supernatant of transiently co-transfected HEK293 cells (also one-step purification-protein A chromatography followed by buffer exchange).
Both the molecular clone and the hybridoma antibodies stained HBL1 to a moderate extent and strongly stained PHTX95L untreated samples. […] The molecular clone antibody was compared to the hybridoma antibody for staining biopsies of human tissues. There were three DLBCL patient samples and one normal lymph node sample (non-tumorigenic) from a patient. […] If nuclear staining would be considered off-target and lead to a determination of absence of pSYK, then a version of MIL81-1-8, with less nuclear relative to cytoplasmic or membranous staining could lead to fewer false negative results.

[7] = single dose 120 mg/kg, IHC of tumors harvested over time

Row | Molecule | EC50 (DLBCL cell lines) | cleaved caspase 3 expression [1, 7] | pBLNK (pBLNK65) expression time course [1, 7] | pSYK (pSYK525) expression time course [1, 7] | pSYK stain in PHTX95L xenograft after treatment ([1]; single oral dose 120 mg/kg, two hours after dosing, MIL81-1-8 hybridoma and molecular clone antibodies) | pSYK stain in TMD8 xenograft after treatment [2] | Samples deemed positive (membrane stain) out of 82 ([3]; AMP HQ amplified IHC, 1:10,000 dilution) | Samples deemed positive (membrane stain) out of 82 ([3]; Leica IHC, 1:3200 dilution) | Western blot staining of IVK-treated recombinant SYK (GST-pSYK (IVK)) | Binding to SYK on western blot, stimulated WSU-DLCL2 cells [4] | Western blot staining of phosphatase-treated recombinant SYK [5] | Overall IHC comparison with hybridoma antibody ([6]; cell pellets, xenografts and human biopsies) | Nuclear staining intensity compared to hybridoma antibody ([6]; human biopsies)
1 | Cn1cc(-c2nc(N[C@@H]3CCCC[C@@H]3N)c(F)c3c2C(=O)NC3)cn1 [Compound A, 6-((1R,2S)-2-Aminocyclohexylamino)-7-fluoro-4-(1-methyl-1H-pyrazol-4-yl)-1H-pyrrolo[3,4-c]pyridin-3(2H)-one] | 25 to 4000 nM | increase in expression | Time dependent inhibition | Time dependent inhibition | diminished | diminished |  |  |  |  |  |  | 
2 | B1 |  |  |  |  |  |  | 34 | 24 | stained the IVK-treated SYK band more intensely than the untreated SYK band | stained the band | slightly stained | slightly better than the hybridoma antibody | remarkably reduced
